Target: IL-12 receptor

Chain of 18/12/TxM triple-cytokine fusion protein (Q13261 whole entry, looked up, the tested form may be a part): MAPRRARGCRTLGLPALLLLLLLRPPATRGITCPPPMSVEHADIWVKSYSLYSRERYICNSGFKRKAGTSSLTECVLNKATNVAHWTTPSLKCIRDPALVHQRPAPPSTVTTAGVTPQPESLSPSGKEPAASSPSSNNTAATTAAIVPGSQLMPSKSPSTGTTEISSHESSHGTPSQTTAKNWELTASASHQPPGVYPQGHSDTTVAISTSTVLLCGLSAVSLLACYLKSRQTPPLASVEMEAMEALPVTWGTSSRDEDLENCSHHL
Chain of 18/12/TxM triple-cytokine fusion protein (P29459 whole entry, looked up, the tested form may be a part): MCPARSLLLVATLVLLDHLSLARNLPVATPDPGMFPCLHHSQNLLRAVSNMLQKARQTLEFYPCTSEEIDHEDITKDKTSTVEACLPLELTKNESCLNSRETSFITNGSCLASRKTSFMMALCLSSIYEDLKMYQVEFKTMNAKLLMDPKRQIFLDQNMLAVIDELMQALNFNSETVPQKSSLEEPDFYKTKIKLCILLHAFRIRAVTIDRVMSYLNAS
Chain of 18/12/TxM triple-cytokine fusion protein (P29460 whole entry, looked up, the tested form may be a part): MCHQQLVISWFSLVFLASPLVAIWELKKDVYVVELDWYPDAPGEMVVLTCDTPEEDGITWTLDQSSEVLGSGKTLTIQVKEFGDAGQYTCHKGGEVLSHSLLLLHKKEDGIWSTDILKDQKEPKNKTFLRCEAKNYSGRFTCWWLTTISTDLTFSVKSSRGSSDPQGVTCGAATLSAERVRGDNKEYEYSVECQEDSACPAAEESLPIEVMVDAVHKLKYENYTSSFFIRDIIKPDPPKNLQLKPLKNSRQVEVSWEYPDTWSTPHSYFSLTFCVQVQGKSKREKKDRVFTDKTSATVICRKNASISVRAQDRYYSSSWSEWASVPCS
Chain of 18/12/TxM triple-cytokine fusion protein (Q14116 whole entry, looked up, the tested form may be a part): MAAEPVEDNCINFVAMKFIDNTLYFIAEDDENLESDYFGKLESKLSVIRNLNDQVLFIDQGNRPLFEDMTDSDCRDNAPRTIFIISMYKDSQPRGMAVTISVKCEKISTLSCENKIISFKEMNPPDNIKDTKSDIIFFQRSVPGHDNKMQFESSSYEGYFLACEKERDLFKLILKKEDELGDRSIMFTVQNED

activation of IL-12 reporter HEK-Blue (HEK12) cells (STAT4-inducible SEAP), EC50: 0.0991 nM
Substance: 18/12/TxM triple-cytokine fusion protein (from UniProt Q14116 37-193; P29460 23-328; P29459 23-219; Q13261 31-95) (complex)

Reference: paper PMC8889352
